Measurements reported in paper PMC5699509.
Where two headings read alike, the source gives them in different places.

Assays:
Assay in all cases: fluorescence quenching
RAD51 E258A [1] = target: T1, RAD51 E258A (Homo sapiens, UniProt Q06609 1-339, E258A)
RAD51 F86L [2] = target: T2, RAD51 F86L (Homo sapiens, UniProt Q06609 1-339, F86L)
RAD51 WT [3] = target: T3, RAD51 WT (Homo sapiens, UniProt Q06609 1-339)
RAD51 E258A [4] = target: T1, RAD51 E258A; remark: listed apart in the source
RAD51 F86L [5] = target: T2, RAD51 F86L; remark: listed apart in the source
RAD51 WT [6] = target: T3, RAD51 WT; remark: listed apart in the source

T1 sequence (Q06609 whole entry E258A): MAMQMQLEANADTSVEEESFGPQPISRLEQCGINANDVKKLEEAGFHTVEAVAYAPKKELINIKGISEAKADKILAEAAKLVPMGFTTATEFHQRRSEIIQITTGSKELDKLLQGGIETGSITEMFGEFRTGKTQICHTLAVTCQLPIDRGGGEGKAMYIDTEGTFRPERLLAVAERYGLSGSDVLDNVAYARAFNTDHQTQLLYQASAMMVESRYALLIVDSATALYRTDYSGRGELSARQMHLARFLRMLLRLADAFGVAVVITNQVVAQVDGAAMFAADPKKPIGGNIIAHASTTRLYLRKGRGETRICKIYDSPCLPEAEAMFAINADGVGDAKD
T3 sequence (Q06609 whole entry): as the sequence (Q06609 whole entry E258A) above, with A258E counted along it
T2 sequence (Q06609 whole entry F86L): as the sequence (Q06609 whole entry E258A) above, with F86L, A258E counted along it

Row | Binder | Kd (RAD51 E258A [1]) | Kd (RAD51 F86L [2]) | Kd (RAD51 WT [3]) | Kd (RAD51 E258A [4]) | Kd (RAD51 F86L [5]) | Kd (RAD51 WT [6])
1 | oligo 9/10 dsDNA (AF546) (dsDNA) DNA 1: AAAAAAAAAAAAAAAAAAAAAAAAA DNA 2: TTTTTTTTTTTTTTTTTTTTTTTTT | 1300 ± 100 nM | 1.8 ± 0.2 µM | 700 ± 100 nM | 2100 ± 100 nM | 1700 ± 100 nM | 800 ± 100 nM
2 | AAAAAAAAAAAAAAAAAAAAAAAAA (ssDNA) [oligo 9 ssDNA (AF546 poly-dA)] | 3100 ± 300 nM | 4.9 ± 0.4 µM | 600 ± 100 nM |  |  | 1900 ± 200 nM
